The values below are quoted from earlier work in publication PMC9697831.

Like-named read-outs stand apart in the source and are kept apart here.

As usually defined, the Kd is a measure of binding affinity in units of concentration.

Data set [1] addresses Kv1.3 (Homo sapiens) (UniProt P22001).
Data set [2] shares this target. This is another data set of the same source.

Kv1.3 (Homo sapiens), sequence (P22001 whole entry): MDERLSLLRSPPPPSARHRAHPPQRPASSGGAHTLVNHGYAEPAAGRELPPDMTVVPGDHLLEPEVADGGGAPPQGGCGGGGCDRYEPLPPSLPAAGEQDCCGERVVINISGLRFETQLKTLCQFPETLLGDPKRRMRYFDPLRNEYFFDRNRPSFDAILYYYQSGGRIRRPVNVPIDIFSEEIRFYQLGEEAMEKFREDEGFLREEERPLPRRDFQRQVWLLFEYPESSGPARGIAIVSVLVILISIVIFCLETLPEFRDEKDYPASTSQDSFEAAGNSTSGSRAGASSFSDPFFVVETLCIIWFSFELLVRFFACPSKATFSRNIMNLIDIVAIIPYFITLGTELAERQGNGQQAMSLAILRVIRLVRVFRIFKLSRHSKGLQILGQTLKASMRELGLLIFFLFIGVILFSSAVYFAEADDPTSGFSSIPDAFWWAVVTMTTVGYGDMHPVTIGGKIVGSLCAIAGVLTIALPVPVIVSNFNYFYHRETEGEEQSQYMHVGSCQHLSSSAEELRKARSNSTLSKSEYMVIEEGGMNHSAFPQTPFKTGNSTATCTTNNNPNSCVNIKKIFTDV
Anuroctoxin, sequence (P0C166 whole entry): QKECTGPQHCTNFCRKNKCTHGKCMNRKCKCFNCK
Ts6, sequence (P59936 23-62): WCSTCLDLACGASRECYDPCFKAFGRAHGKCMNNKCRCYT

In the case of Anuroctoxin (from UniProt P0C166), the Kd with Kv1.3 (Homo sapiens) [1] was 0.73 nM.
As to Ts6 (from UniProt P59936), the Kd in the data set with Kv1.3 (Homo sapiens) [2] is 0.55 nM.
